Numbering of substitutions follows the chain as printed.
T1: FcγRIIb (human, UniProt P31994 43-217)
T1 construct: extracellular domain; also called 2b
T1 sequence: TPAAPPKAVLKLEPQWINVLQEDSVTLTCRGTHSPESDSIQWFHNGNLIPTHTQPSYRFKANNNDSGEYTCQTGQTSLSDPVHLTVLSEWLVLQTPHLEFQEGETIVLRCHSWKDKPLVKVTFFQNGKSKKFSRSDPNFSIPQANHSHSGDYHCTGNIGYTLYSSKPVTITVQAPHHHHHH

T2: FcγRIIa(H) (human, UniProt P12318 34-217)
T2 construct: extracellular domain; also called FcγRIIa H type; 2aH
T2 sequence: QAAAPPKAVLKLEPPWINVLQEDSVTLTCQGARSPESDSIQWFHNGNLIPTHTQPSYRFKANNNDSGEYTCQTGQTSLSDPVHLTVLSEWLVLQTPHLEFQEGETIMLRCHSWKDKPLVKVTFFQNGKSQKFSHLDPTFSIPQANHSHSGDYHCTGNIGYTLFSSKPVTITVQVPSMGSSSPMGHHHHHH

T3: FcγRIIa(R) (human, UniProt P12318 34-217)
T3 construct: extracellular domain; also called FcγRIIa R type; 2aR
T3 sequence: T2 sequence with H134R

T4: FcγRIIb extracellular domain, C-terminal His tag (human, UniProt P31994 43-217)
T4 construct: extracellular domain; also called 2b
T4 sequence: T1 sequence

T5: FcγRIIa(H) extracellular domain, C-terminal His tag (human, UniProt P12318 34-217)
T5 construct: extracellular domain; also called 2aH
T5 sequence: T2 sequence

T6: FcγRIIa(R) extracellular domain, C-terminal His tag (human, UniProt P12318 34-217)
T6 construct: extracellular domain; also called 2aR
T6 sequence: T2 sequence with H134R

B1: GpH7-A5/GpH7-B3 variant S267_19Q/GpL16-k0 (antibody, human IgG1, kappa)
heavy 1: not shown
heavy 2: not shown
light: DIVMTQSPLSLPVTPGEPASISCQASESLVHSNRNTYLHWYLQKPGQSPQLLIYKVSNRFSGVPDRFSGSGSGTDFTLKISRVEAEDVGVYYCSQNTHVPPTFGQGTKVEIERTVAAPSVFIFPPSDEQLKSGTASVVCLLNNFYPREAKVQWKVDNALQSGNSQESVTEQDSKDSTYSLSSTLTLSKADYEKHKVYACEVTHQGLSSPVTKSFNRGEC
notes: heterodimerized IgG1, one H chain mutated; also called He Ab
B2: GpH7-A5/GpH7-B3 variant V266_08L/GpL16-k0 (antibody, human IgG1, kappa)
heavy 1: not shown
heavy 2: not shown
light: B1 light
notes: as for B1
B3: GpH7-A5/GpH7-B3 variant V266_07I/GpL16-k0 (antibody, human IgG1, kappa)
heavy 1: not shown
heavy 2: not shown
light: B1 light
notes: as for B1
B4: GpH7-A5/GpH7-B3 variant V266_02A/GpL16-k0 (antibody, human IgG1, kappa)
heavy 1: not shown
heavy 2: not shown
light: B1 light
notes: as for B1
B5: GpH7-A5/GpH7-B3 variant V266_06M/GpL16-k0 (antibody, human IgG1, kappa)
heavy 1: not shown
heavy 2: not shown
light: B1 light
notes: as for B1
B6: GpH7-A5/GpH7-B3 variant Q295_12R/GpL16-k0 (antibody, human IgG1, kappa)
heavy 1: not shown
heavy 2: not shown
light: B1 light
notes: heterodimerized IgG1, one H chain mutated; also called He Ab; copies: 1 + 1 + 2
B7: GpH7-A5/GpH7-B3 variant P271_13S/GpL16-k0 (antibody, human IgG1, kappa)
heavy 1: not shown
heavy 2: not shown
light: B1 light
notes: as for B6
B8: GpH7-A5/GpH7-B3 variant Q295_07I/GpL16-k0 (antibody, human IgG1, kappa)
heavy 1: not shown
heavy 2: not shown
light: B1 light
notes: as for B6
B9: GpH7-A5/GpH7-B3 variant P271_07I/GpL16-k0 (antibody, human IgG1, kappa)
heavy 1: not shown
heavy 2: not shown
light: B1 light
notes: as for B6
B10: GpH7-A5/GpH7-B3 variant Q295_04F/GpL16-k0 (antibody, human IgG1, kappa)
heavy 1: not shown
heavy 2: not shown
light: B1 light
notes: as for B6
B11: GpH7-A5/GpH7-B3 variant P271_10E/GpL16-k0 (antibody, human IgG1, kappa)
heavy 1: not shown
heavy 2: not shown
light: B1 light
notes: as for B6
B12: GpH7-A5/GpH7-B3 variant Q295_01G/GpL16-k0 (antibody, human IgG1, kappa)
heavy 1: not shown
heavy 2: not shown
light: B1 light
notes: as for B6
B13: GpH7-A5/GpH7-B3 variant P271_11K/GpL16-k0 (antibody, human IgG1, kappa)
heavy 1: not shown
heavy 2: not shown
light: B1 light
notes: as for B6
B14: GpH7-A5/GpH7-B3 variant P271_19Q/GpL16-k0 (antibody, human IgG1, kappa)
heavy 1: not shown
heavy 2: not shown
light: B1 light
notes: as for B6
B15: GpH7-A5/GpH7-B3 variant P271_18N/GpL16-k0 (antibody, human IgG1, kappa)
heavy 1: not shown
heavy 2: not shown
light: B1 light
notes: as for B6
B16: GpH7-A5/GpH7-B3 variant P271_08L/GpL16-k0 (antibody, human IgG1, kappa)
heavy 1: not shown
heavy 2: not shown
light: B1 light
notes: as for B6
B17: GpH7-A5/GpH7-B3 variant Q295_08L/GpL16-k0 (antibody, human IgG1, kappa)
heavy 1: not shown
heavy 2: not shown
light: B1 light
notes: as for B6
B18: GpH7-A5/GpH7-B3 variant Q295_06M/GpL16-k0 (antibody, human IgG1, kappa)
heavy 1: not shown
heavy 2: not shown
light: B1 light
notes: as for B6
B19: GpH7-A5/GpH7-B3 variant Q295_03V/GpL16-k0 (antibody, human IgG1, kappa)
heavy 1: not shown
heavy 2: not shown
light: B1 light
notes: as for B6
B20: GpH7-A5/GpH7-B3 variant P271_12R/GpL16-k0 (antibody, human IgG1, kappa)
heavy 1: not shown
heavy 2: not shown
light: B1 light
notes: as for B6
B21: GpH7-A5/GpH7-B3 variant P271_01G/GpL16-k0 (antibody, human IgG1, kappa)
heavy 1: not shown
heavy 2: not shown
light: B1 light
notes: as for B6
B22: GpH7-A5/GpH7-B3 variant Q295_02A/GpL16-k0 (antibody, human IgG1, kappa)
heavy 1: not shown
heavy 2: not shown
light: B1 light
notes: as for B6
B23: GpH7-A5/GpH7-B3 variant P271_09D/GpL16-k0 (antibody, human IgG1, kappa)
heavy 1: not shown
heavy 2: not shown
light: B1 light
notes: as for B6
B24: GpH7-A5/GpH7-B3 variant P271_06M/GpL16-k0 (antibody, human IgG1, kappa)
heavy 1: not shown
heavy 2: not shown
light: B1 light
notes: as for B6
B25: GpH7-A5/GpH7-B3 variant P271_03V/GpL16-k0 (antibody, human IgG1, kappa)
heavy 1: not shown
heavy 2: not shown
light: B1 light
notes: as for B6
B26: GpH7-A5/GpH7-B3 variant Q295_05P/GpL16-k0 (antibody, human IgG1, kappa)
heavy 1: not shown
heavy 2: not shown
light: B1 light
notes: as for B6
B27: GpH7-A5/GpH7-B3 variant P271_20W/GpL16-k0 (antibody, human IgG1, kappa)
heavy 1: not shown
heavy 2: not shown
light: B1 light
notes: as for B6
B28: GpH7-A5/GpH7-B3 variant P271_02A/GpL16-k0 (antibody, human IgG1, kappa)
heavy 1: not shown
heavy 2: not shown
light: B1 light
notes: as for B6

Target: T1, FcγRIIb
Assay: SPR (Biacore), binding relative to GpH7-A5/GpH7-B3/GpL16-k0 x100;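 further: surface plasmon resonance at 25 °C, antibody captured on a sensor chip and soluble FcγR flowed over it in HBS-EP+ running buffer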

He/Con 2b [%] | Binder
228 | B1
248 | B2
160 | B3
85.1 | B4
264 | B5

Target: T2, FcγRIIa(H)
Assay: as above

He/Con 2aH [%] | Binder
61.9 | B1
106 | B2
107 | B3
69.7 | B4
84.8 | B5

Target: T3, FcγRIIa(R)
Assay: as above

He/Con 2aR [%] | Binder
145 | B1
152 | B2
129 | B3
88.8 | B4
161 | B5

Target: T7, FcγRIa (human, UniProt P12314 16-292)
T7 construct: extracellular domain; also called 1a
T7 sequence (P12314 other isoform, or with tags, fused parts or gaps): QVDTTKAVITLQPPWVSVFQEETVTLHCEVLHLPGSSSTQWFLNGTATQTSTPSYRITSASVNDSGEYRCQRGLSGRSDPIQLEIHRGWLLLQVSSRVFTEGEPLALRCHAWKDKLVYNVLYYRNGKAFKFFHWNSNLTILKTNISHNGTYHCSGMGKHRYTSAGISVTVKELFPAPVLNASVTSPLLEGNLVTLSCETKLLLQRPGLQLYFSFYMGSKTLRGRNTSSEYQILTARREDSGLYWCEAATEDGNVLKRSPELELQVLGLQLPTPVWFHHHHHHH
Assay: as above

He/Con 1a [%] | Binder
99.2 | B1
94.9 | B2
96.1 | B3
93.8 | B4
96.5 | B5

Target: T8, FcγRIa extracellular domain, C-terminal His tag (human, UniProt P12314 16-292)
T8 construct: extracellular domain; also called 1a
T8 sequence (P12314 other isoform, or with tags, fused parts or gaps): as above
Assay: SPR; He Ab vs HeCon Ab (GpH7-A5/GpH7-B3/GpL16-k0)=100;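 further: surface plasmon resonance at 25 °C with the test antibody captured on a sensor chip via antigenic peptide, protein L or protein A/G and FcγR flowed over as analyte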
Method: (§1) The antibody of interest was analyzed for its interaction with FcγR using a BiaCore™ T100, BiaCore™ A100, or BiaCore™ 4000 surface plasmon resonance system (GE Healthcare Japan Corp.). The running buffer used was HBS-EP+ (GE Healthcare Japan Corp.). The assay temperature was set to 25° C. The sensor chips used were: a chip prepared by immobilizing antigenic peptides onto Series S Sensor Chip CM5 (GE Healthcare Japan Corp.) by the amine coupling method; a chip prepared by immobilizing antigenic peptides biotinylated in advance onto Series S Sensor Chip SA (certified) (GE Healthcare Japan Corp.) through their interaction; a chip prepared by immobilizing protein L (ACTIGEN, BioVision, Inc.) onto Series S Sensor Chip CM5 (GE Healthcare Japan Corp.); and a chip prepared by immobilizing protein A/G (Thermo Fisher Scientific K.K.) onto Series S Sensor Chip CM5 (GE Healthcare Japan Corp.). The antibody of interest was captured onto any of these chips and allowed to interact with FcγR diluted with a running buffer. The antibody captured on the chip was washed off through the reaction of 10 mM glycine-HCl (pH 1.5) to regenerate the chip, which was repetitively used.

He/Con 1a [%] | Binder
98.8 | B6
101 | B7
101 | B8
101 | B9
101 | B10
101 | B11
96.1 | B12
101 | B13
102 | B14
102 | B15
101 | B16
103 | B17
102 | B18
102 | B19
101 | B20
103 | B21
103 | B22
100 | B23
101 | B24
101 | B25
102 | B26
101 | B27
102 | B28

Target: T4, FcγRIIb extracellular domain, …
Assay: as above
Method: as §1

He/Con 2b [%] | Binder
73.1 | B6
98.2 | B7
94.5 | B8
86.1 | B9
72.6 | B10
122 | B11
51.6 | B12
101 | B13
99.3 | B14
105 | B15
115 | B16
134 | B17
101 | B18
84.9 | B19
96.9 | B20
217 | B21
89.4 | B22
135 | B23
87 | B24
83.8 | B25
75.7 | B26
65.1 | B27
98.7 | B28

Target: T9, FcγRIIIa extracellular domain, C-terminal His tag (human, UniProt P08637 17-208)
T9 construct: extracellular domain; also called 3a
T9 sequence (P08637 other isoform, or with tags, fused parts or gaps): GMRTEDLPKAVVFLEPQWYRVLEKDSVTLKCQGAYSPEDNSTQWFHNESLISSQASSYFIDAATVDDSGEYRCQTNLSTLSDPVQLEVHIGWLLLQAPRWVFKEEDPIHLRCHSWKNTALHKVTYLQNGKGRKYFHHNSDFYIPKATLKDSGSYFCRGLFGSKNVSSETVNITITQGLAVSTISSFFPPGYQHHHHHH
Assay: as above
Method: as §1

He/Con 3a [%] | Binder
73.2 | B6
79.8 | B7
101 | B8
80.2 | B9
75.1 | B10
98.2 | B11
76.6 | B12
92.5 | B13
84.6 | B14
94 | B15
74.5 | B16
120 | B17
100 | B18
86.2 | B19
87.6 | B20
119 | B21
111 | B22
97.7 | B23
74 | B24
73.5 | B25
74.4 | B26
77.8 | B27
83.7 | B28

Target: T5, FcγRIIa(H) extracellular domain, …
Assay: as above
Method: as §1

He/Con 2aH [%] | Binder
96.4 | B6
83.3 | B7
117 | B8
94.1 | B9
87.4 | B10
72.4 | B11
62.5 | B12
100 | B13
90.7 | B14
94.5 | B15
99.4 | B16
128 | B17
111 | B18
106 | B19
100 | B20
123 | B21
101 | B22
80.4 | B23
87.7 | B24
85.4 | B25
118 | B26
88.7 | B27
88.4 | B28

Target: T6, FcγRIIa(R) extracellular domain, …
Assay: as above
Method: as §1

He/Con 2aR [%] | Binder
82.2 | B6
93.5 | B7
97.3 | B8
88 | B9
82.8 | B10
102 | B11
60.3 | B12
97.3 | B13
95.1 | B14
97.7 | B15
103 | B16
118 | B17
101 | B18
90.3 | B19
95.8 | B20
143 | B21
91.5 | B22
109 | B23
87.3 | B24
85.8 | B25
86.6 | B26
76.6 | B27
93.9 | B28

Reference: patent US20260167699A1 (Chugai, published 2026)
